These results are taken from the supplement of paper PMC10567573.

To fix the notation:
B1: NFE2L1 (parent)
chain: TLDGYGIHPKSIDLDNYFTARRLL
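Note: lentivirally expressed fusions sorted by FACS into six bins by GFP to DsRed ratio, PSI derived from sequencing read proportions per bin multiplied by bin number.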

This data set covers variants of B1. Kind of data set: protein stability index of a GFP-peptide fusion (GPS, HEK-293T) (PSI 1-6); higher = more stable. The conditions noted are these: c terminus: a fixed tail appended.
Regarding TLDGYGIHPKSIDLDNYFTAMRLL [R21M], the protein stability index was 1.86.
Turning to TLDGYGIHPKSIDLDNYFTAHRLL [R21H], the protein stability index came out at 2.8.
Turning to TLDGYGIHPKSIDLDNYFTAGRLL [R21G], the protein stability index came to 2.4.
In the case of TLDGYGIHPKSIDLDNYFTAERLL [R21E] it was 2.12; in that of TLDGYGIHPKSIDLDNYFTAFRLL [R21F], 1.77.
In the case of TLDGYGIRPKSIDLDNYFTARRLL [H8R] it was 1.55.
Regarding TLDGYGIWPKSIDLDNYFTARRLL [H8W], the protein stability index was 1.66.
As for TLDGYGIHPKSIDLDNYFRARRLL [T19R], the protein stability index stood at 2.81.
TLDGYGIHPKSIDLDNYFWARRLL [T19W]: the protein stability index was 2.08.
Turning to TLDGYGIHPKSIDLDNYFLARRLL [T19L], the protein stability index was 1.26.
As to TLDGYGIHPKSIDLDNYFHARRLL [T19H], the protein stability index came to 2.32.
As for TLDGYGIHPKSIDLDNYFCARRLL [T19C], the figure is 1.69.
With TLDGYGIHPKSIDLDNYFGARRLL [T19G], the protein stability index turned out to be 1.89.
On to TLDGYGIHPKSIDLDNYFYARRLL [T19Y], for which the protein stability index was found to be 1.8.
As for TLDGYGIHPKSIDLDNYFTARRLA [L24A], the figure is 2.26; as for TLDGYGIHPKSIDLDNYFTARRLN [L24N], 2.48.
Regarding TLDGYGIHPKSIDLDNYFTARRLV [L24V], the protein stability index amounted to 2.08.
TLDGYGIHPKSIDLDNYFTARRLF [L24F]: the protein stability index was determined as 2.42.
Consider TLDGYGIHPKSIDLDNYFTARRLC [L24C], for which the protein stability index was determined as 1.84.
In the case of TLDGYGIHPKSIDLDNYFTARRLE [L24E], the protein stability index stood at 2.79.
As to TLDGYGIHPKSIDLDNYFTARRVL [L23V], the protein stability index stood at 1.66.
As to TLDGYGIHPKSIDLDNYFTARRGL [L23G], the protein stability index was determined as 2.42.
In the case of TLDGYGIHPKSIDLDNYFTARRML [L23M], the protein stability index was determined as 2.03.
Turning to TLDGYGIHPKSIDLDNYFTARRPL [L23P], the protein stability index is 2.54.
As for TLDGYGIHPKSIDLDNYFTARRHL [L23H], the figure is 2.18.
Take TLDGYGIHPKSIDLDNYFTARREL [L23E]: the protein stability index worked out at 2.6.
Regarding TLAGYGIHPKSIDLDNYFTARRLL [D3A], the protein stability index is 2.61.
As for TLPGYGIHPKSIDLDNYFTARRLL [D3P], the protein stability index amounted to 1.62.
On to TLRGYGIHPKSIDLDNYFTARRLL [D3R], for which the protein stability index turned out to be 2.33.
TLKGYGIHPKSIDLDNYFTARRLL [D3K]: the protein stability index came out at 2.34.
On to TLCGYGIHPKSIDLDNYFTARRLL [D3C], for which the protein stability index was found to be 1.77.
Turning to TLNGYGIHPKSIDLDNYFTARRLL [D3N], the protein stability index is 2.33.
For the variant TLTGYGIHPKSIDLDNYFTARRLL [D3T], the protein stability index turned out to be 1.61.
TLMGYGIHPKSIDLDNYFTARRLL [D3M]: the protein stability index was found to be 2.07.
As to TLDGYPIHPKSIDLDNYFTARRLL [G6P], the protein stability index was found to be 1.76.
Consider TLDGYAIHPKSIDLDNYFTARRLL [G6A], for which the protein stability index came to 2.26.
As for TLDGYMIHPKSIDLDNYFTARRLL [G6M], the figure is 1.83.
Regarding TLDGYGIHPKSIDPDNYFTARRLL [L14P], the protein stability index is 2.31.
With TLDGYGIHPKSIDQDNYFTARRLL [L14Q], the protein stability index amounted to 2.21.
Take TLDGYGIHPKSIDDDNYFTARRLL [L14D]: the protein stability index stood at 2.71.
As for TLDGYGIHPKSIDADNYFTARRLL [L14A], the protein stability index is 2.2.
As to TLDGYGIHPKSIDRDNYFTARRLL [L14R], the protein stability index was found to be 2.1.
As for LLDGYGIHPKSIDLDNYFTARRLL [T1L], the figure is 1.57; as for DLDGYGIHPKSIDLDNYFTARRLL [T1D], 1.92; as for QLDGYGIHPKSIDLDNYFTARRLL [T1Q], 1.99.
Regarding SLDGYGIHPKSIDLDNYFTARRLL [T1S], the protein stability index worked out at 1.82.
Turning to PLDGYGIHPKSIDLDNYFTARRLL [T1P], the protein stability index was 2.37.
As to ALDGYGIHPKSIDLDNYFTARRLL [T1A], the protein stability index came out at 2.49.
As for FLDGYGIHPKSIDLDNYFTARRLL [T1F], the figure is 1.3; as for WLDGYGIHPKSIDLDNYFTARRLL [T1W], 3.41.
On to TLDGYGIHPKSIDLRNYFTARRLL [D15R], for which the protein stability index turned out to be 2.74.
Turning to TLDGYGIHPKSIDLGNYFTARRLL [D15G], the protein stability index turned out to be 2.3.
In the case of TLDGYGIHPKSIDLFNYFTARRLL [D15F], the protein stability index came out at 2.6.
In the case of TLDGYGIHPKSIDLYNYFTARRLL [D15Y] it was 1.46.
In the case of TLDGYGIHPKSIDLINYFTARRLL [D15I] it was 2.47.
In the case of TLDGYGIHPKSIDLLNYFTARRLL [D15L] it was 1.57; in that of TLDGYGIHPKSIDLHNYFTARRLL [D15H], 1.89.
TLDGYGIHPKSIDLCNYFTARRLL [D15C]: the protein stability index came out at 1.48.
With TLDGYGVHPKSIDLDNYFTARRLL [I7V], the protein stability index turned out to be 1.68.
Turning to TLDGYGPHPKSIDLDNYFTARRLL [I7P], the protein stability index was 2.12.
Regarding TLDGYGNHPKSIDLDNYFTARRLL [I7N], the protein stability index came out at 2.1.
For TLDGYGGHPKSIDLDNYFTARRLL [I7G], the protein stability index was found to be 1.92.
TLDGYGIHPKSIDLDNYFTARGLL [R22G]: the protein stability index was determined as 2.53.
Consider TLDGYGIHPKSIDLDNYFTARFLL [R22F], for which the protein stability index was determined as 1.6.
For the variant TLDGYGIHPKSIDLDNYFTARQLL [R22Q], the protein stability index worked out at 1.89.
With TLDGYGIHPKSIDLDNYFTARSLL [R22S], the protein stability index is 1.69.
TLDGYGIHPKSIDLDNYFTARHLL [R22H]: the protein stability index is 2.2.
Regarding TLDGYGIHPKSIDLDNYNTARRLL [F18N], the protein stability index turned out to be 3.
With TLDGYGIHPKSIDLDNYETARRLL [F18E], the protein stability index is 2.71.
As for TLDGYGIHPKSIDLDNYATARRLL [F18A], the figure is 2.93; as for TLDGYGIHPKSIDLDNYMTARRLL [F18M], 2.08; as for TLDGYGIHPKSIDLDNYHTARRLL [F18H], 2.34.
As to TLDGYGIHPKSIDLDNYITARRLL [F18I], the protein stability index amounted to 1.92.
Consider TLDGYGIHPKSIDLDNYSTARRLL [F18S], for which the protein stability index was 2.16.
With TLDGYGIHPCSIDLDNYFTARRLL [K10C], the protein stability index came out at 2.54.
With TLDGYGIHPDSIDLDNYFTARRLL [K10D], the protein stability index came out at 2.37.
As for TLDGYGIHPESIDLDNYFTARRLL [K10E], the figure is 1.65; as for TLDGYGIHPLSIDLDNYFTARRLL [K10L], 2.01.
As for TLDGYGIHPTSIDLDNYFTARRLL [K10T], the figure is 1.94; as for TLDGYGIHPASIDLDNYFTARRLL [K10A], 1.79.
As for TLDGYGIHPQSIDLDNYFTARRLL [K10Q], the figure is 2.12.
As for TLDGYGIHPKSIQLDNYFTARRLL [D13Q], the protein stability index is 2.01.
Take TLDGYGIHPKSIILDNYFTARRLL [D13I]: the protein stability index worked out at 2.77.
On to TLDGYGIHPKSIGLDNYFTARRLL [D13G], for which the protein stability index is 2.25.
For TLDGYGIHPKSIFLDNYFTARRLL [D13F], the protein stability index worked out at 1.48.
Consider TLDGYGIHPKSIRLDNYFTARRLL [D13R], for which the protein stability index came out at 1.91.
As for TLDPYGIHPKSIDLDNYFTARRLL [G4P], the protein stability index stood at 1.63.
In the case of TLDLYGIHPKSIDLDNYFTARRLL [G4L], the protein stability index worked out at 1.27.
Take TLDWYGIHPKSIDLDNYFTARRLL [G4W]: the protein stability index was found to be 1.91.
On to TLDSYGIHPKSIDLDNYFTARRLL [G4S], for which the protein stability index turned out to be 2.13.
For TLDYYGIHPKSIDLDNYFTARRLL [G4Y], the protein stability index is 1.5.
For TLDMYGIHPKSIDLDNYFTARRLL [G4M], the protein stability index came to 2.09.
As for TLDCYGIHPKSIDLDNYFTARRLL [G4C], the figure is 1.43; as for TLDFYGIHPKSIDLDNYFTARRLL [G4F], 1.46.
